Test results as given in PMC9482650, “Quantitative fragmentomics allow affinity mapping of interactomes” (Nature Communications, 2022).

T1: DFNB31_2, Q9P202
T1 sequence (Q9P202 274-371, limits assumed, looked up): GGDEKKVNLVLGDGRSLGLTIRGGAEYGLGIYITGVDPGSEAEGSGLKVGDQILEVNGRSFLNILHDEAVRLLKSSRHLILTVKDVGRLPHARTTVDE

T2: ARHGAP21, Q5T5U3
T2 sequence (Q5T5U3 45-169, limits assumed, looked up): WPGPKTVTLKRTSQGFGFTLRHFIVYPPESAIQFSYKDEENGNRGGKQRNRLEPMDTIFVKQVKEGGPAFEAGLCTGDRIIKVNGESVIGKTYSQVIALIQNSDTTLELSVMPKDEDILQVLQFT

T3: PDZD2_2, O15018
T3 sequence (O15018 329-429, limits assumed, looked up): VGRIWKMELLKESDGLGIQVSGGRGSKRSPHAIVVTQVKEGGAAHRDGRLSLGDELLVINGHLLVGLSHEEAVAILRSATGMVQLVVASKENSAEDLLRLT

T4: GRIP1_7, Q9Y3R0
T4 sequence (Q9Y3R0 999-1096, limits assumed, looked up): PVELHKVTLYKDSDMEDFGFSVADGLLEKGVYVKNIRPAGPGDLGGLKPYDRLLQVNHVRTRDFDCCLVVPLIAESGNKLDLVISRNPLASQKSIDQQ

T5: HTRA3, P83110
T5 sequence (P83110 354-453, limits assumed, looked up): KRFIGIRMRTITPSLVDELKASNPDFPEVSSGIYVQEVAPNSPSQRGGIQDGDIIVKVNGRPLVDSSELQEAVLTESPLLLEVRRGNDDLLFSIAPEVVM

T6: TX1BP3, O14907
T6 sequence (O14907 10-122, limits assumed, looked up): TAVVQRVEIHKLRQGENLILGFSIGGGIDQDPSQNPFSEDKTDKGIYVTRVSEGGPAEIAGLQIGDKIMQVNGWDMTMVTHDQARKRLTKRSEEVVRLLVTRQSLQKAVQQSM

T7: LIN7A, O14910
T7 sequence (O14910 103-200, limits assumed, looked up): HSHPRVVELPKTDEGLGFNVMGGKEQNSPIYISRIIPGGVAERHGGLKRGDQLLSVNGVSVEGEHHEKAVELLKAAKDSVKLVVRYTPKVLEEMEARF

T8: SYNJ2BP, P57105
T8 sequence (P57105 8-110, limits assumed, looked up): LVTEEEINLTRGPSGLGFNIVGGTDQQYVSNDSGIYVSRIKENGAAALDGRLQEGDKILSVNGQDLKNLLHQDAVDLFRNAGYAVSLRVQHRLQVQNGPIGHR


How the values were obtained:
Experiment in all cases: holdup assay
Set-up in all cases: key: below the threshold = too weak to quantify, mostly under pKd 3.1 to 4
Conditions in all cases: plain residues with an end cap or a label only (N-terminal biotin on a linker: ado-ado)
[1] = target: FRMPD2_1, Q68DX3
Chain of FRMPD2_1, Q68DX3 (Q68DX3 770-861): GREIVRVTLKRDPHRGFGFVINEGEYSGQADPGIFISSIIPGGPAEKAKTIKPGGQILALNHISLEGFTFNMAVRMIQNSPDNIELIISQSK

[2] = target: MAGI3_2, Q5TCQ9
Chain of MAGI3_2, Q5TCQ9 (Q5TCQ9 398-503): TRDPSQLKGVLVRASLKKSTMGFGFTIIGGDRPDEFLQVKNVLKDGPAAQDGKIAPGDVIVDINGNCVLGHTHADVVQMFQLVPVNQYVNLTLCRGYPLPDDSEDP

[3] = target: FRMPD4, Q14CM0
Chain of FRMPD4, Q14CM0 (Q14CM0 67-160): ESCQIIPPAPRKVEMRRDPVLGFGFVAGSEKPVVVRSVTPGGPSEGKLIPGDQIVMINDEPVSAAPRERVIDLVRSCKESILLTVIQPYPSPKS

[4] = target: GRIP2_3, Q9C0E4
Chain of GRIP2_3, Q9C0E4 (Q9C0E4 238-339): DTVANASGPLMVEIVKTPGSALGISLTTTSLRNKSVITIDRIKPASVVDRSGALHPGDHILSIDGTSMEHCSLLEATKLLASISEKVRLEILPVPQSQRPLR

[5] = target: MAGI2_3, Q86UL8
Chain of MAGI2_3, Q86UL8 (Q86UL8 600-682): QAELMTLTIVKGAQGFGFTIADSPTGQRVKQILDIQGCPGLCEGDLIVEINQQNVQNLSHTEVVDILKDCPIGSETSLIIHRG

[6] = target: TJP1_2, Q07157
Chain of TJP1_2, Q07157 (Q07157 181-274): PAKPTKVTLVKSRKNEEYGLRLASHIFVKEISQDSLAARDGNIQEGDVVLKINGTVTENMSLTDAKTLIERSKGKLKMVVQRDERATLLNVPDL

[7] = target: DLG5_1, Q8TDM6
Chain of DLG5_1, Q8TDM6 (Q8TDM6 617-713): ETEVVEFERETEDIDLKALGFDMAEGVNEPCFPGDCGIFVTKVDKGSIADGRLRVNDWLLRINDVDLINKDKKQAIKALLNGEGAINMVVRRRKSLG

[8] = target: GRID2IP_2, A4D2P6
Chain of GRID2IP_2, A4D2P6 (A4D2P6 272-370): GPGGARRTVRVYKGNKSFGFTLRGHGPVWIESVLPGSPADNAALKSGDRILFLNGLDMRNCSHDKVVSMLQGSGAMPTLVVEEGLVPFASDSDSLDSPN

[9] = target: Inadl_10, Q8NI35
Chain of Inadl_10, Q8NI35 (Q8NI35 1673-1763): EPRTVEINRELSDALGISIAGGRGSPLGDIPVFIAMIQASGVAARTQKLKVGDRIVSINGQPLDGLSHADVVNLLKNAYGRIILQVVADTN

[10] = target: Inadl_5, Q8NI35
Chain of Inadl_5, Q8NI35 (Q8NI35 673-780): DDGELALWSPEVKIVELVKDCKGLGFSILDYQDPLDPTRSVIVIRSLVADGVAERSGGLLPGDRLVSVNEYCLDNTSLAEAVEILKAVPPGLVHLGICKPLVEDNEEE

[11] = target: HTRA1, Q92743
Chain of HTRA1, Q92743 (Q92743 360-477): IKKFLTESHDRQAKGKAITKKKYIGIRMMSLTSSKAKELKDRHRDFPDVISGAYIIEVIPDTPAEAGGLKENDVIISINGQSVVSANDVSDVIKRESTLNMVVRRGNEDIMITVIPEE

[12] = target: T1, DFNB31_2, Q9P202
[13] = target: SCRIB_2, Q14160
Chain of SCRIB_2, Q14160 (Q14160 857-960): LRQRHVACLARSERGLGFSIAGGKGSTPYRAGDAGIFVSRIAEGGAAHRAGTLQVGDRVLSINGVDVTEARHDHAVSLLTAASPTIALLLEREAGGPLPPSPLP

[14] = target: GORASP1, Q9BQQ3
Chain of GORASP1, Q9BQQ3 (Q9BQQ3 1-208): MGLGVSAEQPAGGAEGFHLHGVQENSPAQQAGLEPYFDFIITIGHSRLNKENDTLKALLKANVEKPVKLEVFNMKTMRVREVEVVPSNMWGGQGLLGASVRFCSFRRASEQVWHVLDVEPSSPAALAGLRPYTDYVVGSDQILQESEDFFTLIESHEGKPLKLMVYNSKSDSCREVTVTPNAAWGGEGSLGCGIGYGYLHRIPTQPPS

[15] = target: IL16_3, Q14005
Chain of IL16_3, Q14005 (Q14005 1107-1207): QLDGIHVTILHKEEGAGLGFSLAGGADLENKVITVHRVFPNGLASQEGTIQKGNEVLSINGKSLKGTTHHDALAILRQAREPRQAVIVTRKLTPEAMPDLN

[16] = target: DLG4_3, P78352
Chain of DLG4_3, P78352 (P78352 306-403): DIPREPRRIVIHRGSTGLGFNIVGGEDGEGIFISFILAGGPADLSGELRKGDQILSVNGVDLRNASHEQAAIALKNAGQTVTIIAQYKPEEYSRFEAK

[17] = target: Inadl_8, Q8NI35
Chain of Inadl_8, Q8NI35 (Q8NI35 1425-1530): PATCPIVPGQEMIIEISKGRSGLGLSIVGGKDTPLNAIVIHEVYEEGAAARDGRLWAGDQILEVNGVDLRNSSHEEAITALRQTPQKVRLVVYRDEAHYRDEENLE

[18] = target: T2, ARHGAP21, Q5T5U3
[19] = target: T3, PDZD2_2, O15018
[20] = target: MAGI2_5, Q86UL8
Chain of MAGI2_5, Q86UL8 (Q86UL8 915-1017): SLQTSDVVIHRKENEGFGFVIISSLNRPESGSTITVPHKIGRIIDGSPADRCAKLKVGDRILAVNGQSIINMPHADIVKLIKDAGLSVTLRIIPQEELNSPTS

[21] = target: LNX1_2, Q8TBB1
Chain of LNX1_2, Q8TBB1 (Q8TBB1 371-470): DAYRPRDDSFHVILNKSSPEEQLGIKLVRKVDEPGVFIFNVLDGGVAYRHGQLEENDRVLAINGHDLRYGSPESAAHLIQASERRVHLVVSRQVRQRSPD

[22] = target: PICK1, Q9NRD5
Chain of PICK1, Q9NRD5 (Q9NRD5 17-115): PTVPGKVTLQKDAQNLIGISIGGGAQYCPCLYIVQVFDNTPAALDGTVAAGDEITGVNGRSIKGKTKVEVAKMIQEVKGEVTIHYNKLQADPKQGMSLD

[23] = target: T4, GRIP1_7, Q9Y3R0
[24] = target: DLG2_2, Q15700
Chain of DLG2_2, Q15700 (Q15700 189-283): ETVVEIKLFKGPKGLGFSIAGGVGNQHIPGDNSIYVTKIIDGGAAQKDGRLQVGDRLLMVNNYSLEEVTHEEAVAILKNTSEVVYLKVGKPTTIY

[25] = target: Inadl_2, Q8NI35
Chain of Inadl_2, Q8NI35 (Q8NI35 238-335): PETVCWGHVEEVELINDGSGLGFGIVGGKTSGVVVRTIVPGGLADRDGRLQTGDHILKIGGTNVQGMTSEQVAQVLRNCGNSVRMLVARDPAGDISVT

[26] = target: T5, HTRA3, P83110
[27] = target: T6, TX1BP3, O14907
[28] = target: T7, LIN7A, O14910
[29] = target: T8, SYNJ2BP, P57105

| pKd [1] | pKd [2] | pKd [3] | pKd [4] | pKd [5] | pKd [6] | pKd [7] | pKd [8] | pKd [9] | pKd [10] | pKd [11] | pKd [12] | pKd [13] | pKd [14] | pKd [15] | pKd [16] | pKd [17] | pKd [18] | pKd [19] | pKd [20] | Binder | also measured |
| --- | --- | --- | --- | --- | --- | --- | --- | --- | --- | --- | --- | --- | --- | --- | --- | --- | --- | --- | --- | --- | --- |
| below the threshold | 3.71 | below the threshold | below the threshold | below the threshold | 3.62 | below the threshold | 3.84 | below the threshold | below the threshold | 4 | below the threshold | 4.21 | below the threshold | below the threshold | below the threshold | below the threshold | 3.85 | 4.79 | 4.54 | PLDSQQHTEV [FAT1, Q14517] | pKd [21]: below the threshold; pKd [22]: below the threshold; pKd [23]: below the threshold; pKd [24]: 4.62; pKd [25]: below the threshold; pKd [26]: below the threshold; pKd [27]: 3.85; pKd [28]: below the threshold; pKd [29]: 4.62 |
| below the threshold | 4.4 | 3.88 | below the threshold | below the threshold | below the threshold | below the threshold | 4.48 | below the threshold | below the threshold | 4.16 | below the threshold | below the threshold | 3.78 | below the threshold | below the threshold | 3.61 | 4.02 | 3.87 | below the threshold | SRPTKGPTLL [PLEKHH2, Q8IVE3] | pKd [21]: below the threshold; pKd [22]: below the threshold; pKd [23]: below the threshold; pKd [24]: below the threshold; pKd [25]: below the threshold; pKd [26]: below the threshold; pKd [27]: 4.01; pKd [28]: below the threshold; pKd [29]: below the threshold |
| below the threshold | below the threshold | below the threshold | below the threshold | below the threshold | 3.55 | below the threshold | 3.81 | below the threshold | 3.86 | 5.07 | below the threshold | below the threshold | 3.87 | below the threshold | below the threshold | below the threshold | 3.57 | 4.36 | below the threshold | LTAQEQPVYI [APBA1, Q02410] | pKd [21]: below the threshold; pKd [22]: below the threshold; pKd [23]: below the threshold; pKd [24]: below the threshold; pKd [25]: 3.72; pKd [26]: 4.41; pKd [27]: below the threshold; pKd [28]: below the threshold; pKd [29]: below the threshold |
